Experiment [1] deals with T1, TACI on TACI+ expressing IM9 cell line (UniProt O14836 1-293, limits assumed).
T1 construct: whole, on cells; also called TACI+IM9 cells; TACI+ in IM9 cells
T1 sequence (looked up): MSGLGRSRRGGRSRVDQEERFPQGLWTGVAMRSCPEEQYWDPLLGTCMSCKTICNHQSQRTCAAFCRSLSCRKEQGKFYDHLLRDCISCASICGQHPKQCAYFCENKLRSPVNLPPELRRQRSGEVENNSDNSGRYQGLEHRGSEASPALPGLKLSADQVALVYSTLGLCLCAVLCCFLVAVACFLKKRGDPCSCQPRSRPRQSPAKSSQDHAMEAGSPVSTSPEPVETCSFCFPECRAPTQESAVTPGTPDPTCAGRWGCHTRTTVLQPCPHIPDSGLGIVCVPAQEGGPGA
Nature of the experiment: FACS on TACI+IM9 cells, 1 to 50 ng/mL ligand; the filing calls a major component of this binding nonspecific.

For experiment [2], the target named is T1, TACI on TACI+ expressing IM9 cell line. Kind of experiment: FACS on TACI+IM9 cells, 1 to 50 ng/mL ligand.

B1: truncated human APRIL ligand polypeptide encoded by amino acid residues 105-250 of SEQ ID NO: 6 (ligand, not shown: small tags and cut ends)
chain: AVLTQKQKKQHSVLHLVPINATSKDDSDVTEVMWQPALRRGRGLQAQGYGVRIQDAGVYLLYSQVLFQDVTFTMGQVVSREGQGRQETLFRCIRSMPSHPDRAYNSCYSAGVFHLHQGDILSVIIPRARAKLNLSPHGTFLGFVKL
notes: also called longer truncate of human APRIL ligand polypeptide
In the case of B1, the binding result in experiment [1] is recorded as “binds”.

B2: FLAG-tagged truncated human APRIL ligand polypeptide (amino acids 115-250 of SEQ ID NO: 6) (ligand, not shown: small tags and cut ends)
chain: HSVLHLVPINATSKDDSDVTEVMWQPALRRGRGLQAQGYGVRIQDAGVYLLYSQVLFQDVTFTMGQVVSREGQGRQETLFRCIRSMPSHPDRAYNSCYSAGVFHLHQGDILSVIIPRARAKLNLSPHGTFLGFVKL
notes: Expressed in 293T cells; Tested both purified (anti-FLAG M1, SP Sepharose, Superdex 200) and unpurified in cell medium (SN); also called FLAGhuAPRIL purified; FLAGhuAPRIL SN
With B2, the binding result in experiment [2] is “binds”.

For the origin of these results see patent publication US20060003407A1 (Biogen, published 2006).
